Assay results published in PMC9555727 (Chemical Science, 2022).
Several values for one entry are separate records, joined by “and”; a condition that tells them apart may be missing. Identical values can stand only once. Like-named read-outs stand apart in the source and are kept apart here. Blank lines part the entries; values can stand above or below the molecule they belong to.

Columns and labels:
[1] = target: Can (E. coli BL21 (DE3)); test: not stated; summary of the solution experiments on the 17 proteins (native MS, MP, SEC, SAXS); which method gave the stated form is not given; details in Table S2, Fig. 5A and Fig. 6
[2] = target: FabG (3-oxoacyl-[acyl-carrier-protein] reductase) from E. coli-DE3 (E. coli BL21 (DE3)); test: SAXS; EMBL P12 beamline, 20 °C, four concentrations between about 10 and 90 μM; MM from I(0) and equilibrium fit with OLIGOMER on PDB structures
[3] = target: FabG (3-oxoacyl-[acyl-carrier-protein] reductase) from E. coli-DE3 (E. coli BL21 (DE3)); test: native MS; online buffer exchange MS; proteins diluted in 50 mM HEPES, 50 mM NaCl pH 7.4 (FabG: 25 mM tricine, 50 mM NaCl pH 8.5), overnight at 4 °C, exchanged online to 200 mM ammonium acetate pH 6.8; range of concentrations 40-0.15 μM before dilution; DeoC: apparent affinity, dimer to monomers, fit of eqn (1)
[4] = target: FabG (3-oxoacyl-[acyl-carrier-protein] reductase) from E. coli-DE3 (E. coli BL21 (DE3)); test: SAXS; EMBL P12 beamline, 20 °C, four concentrations between about 10 and 90 μM; MM from I(0) and equilibrium fit with OLIGOMER on PDB structures; remark: listed apart in the source
[5] = target: FabG (3-oxoacyl-[acyl-carrier-protein] reductase) from E. coli-DE3 (E. coli BL21 (DE3)); test: SEC; 30 μg protein on Superdex 200 Increase 10/300 GL in PBS pH 7.4; MM from a standard curve of elution volumes
[6] = target: FabG (3-oxoacyl-[acyl-carrier-protein] reductase) from E. coli-DE3 (E. coli BL21 (DE3)); test: mass photometry; protein stocks diluted in PBS pH 7.4 to nanomolar concentrations (~100 nM) immediately before measurement; detection threshold ~40 kDa
[7] = target: FabG (3-oxoacyl-[acyl-carrier-protein] reductase) from E. coli-DE3 (E. coli BL21 (DE3)); test: non-reducing SDS-PAGE; 10 μg protein without β-mercaptoethanol, heated, 4-20% gel, Coomassie stain; shows inter-protein disulfide bridges
[8] = target: FabG (3-oxoacyl-[acyl-carrier-protein] reductase) from E. coli-DE3 (E. coli BL21 (DE3)); test: native MS; as a1, FabG^DE3 in the presence of DTT; 2.5-40 μM
[9] = target: IspD (E. coli BL21 (DE3)); test: not stated; summary of the solution experiments on the 17 proteins (native MS, MP, SEC, SAXS); which method gave the stated form is not given; details in Table S2, Fig. 5A and Fig. 6
[10] = target: NadK (E. coli BL21 (DE3)); test: SAXS; EMBL P12 beamline, 20 °C, four concentrations between about 10 and 90 μM; MM from I(0) and equilibrium fit with OLIGOMER on PDB structures
[11] = target: NadK (E. coli BL21 (DE3)); test: native MS; online buffer exchange MS; proteins diluted in 50 mM HEPES, 50 mM NaCl pH 7.4 (FabG: 25 mM tricine, 50 mM NaCl pH 8.5), overnight at 4 °C, exchanged online to 200 mM ammonium acetate pH 6.8; range of concentrations 40-0.15 μM before dilution; DeoC: apparent affinity, dimer to monomers, fit of eqn (1)
[12] = target: NadK (E. coli BL21 (DE3)); test: SEC; 30 μg protein on Superdex 200 Increase 10/300 GL in PBS pH 7.4; MM from a standard curve of elution volumes
[13] = target: SpeB (E. coli BL21 (DE3)); test: not stated; summary of the solution experiments on the 17 proteins (native MS, MP, SEC, SAXS); which method gave the stated form is not given; details in Table S2, Fig. 5A and Fig. 6
[14] = target: Superoxide dismutase (SodA) (E. coli BL21 (DE3)); test: SAXS; EMBL P12 beamline, 20 °C, four concentrations between about 10 and 90 μM; MM from I(0) and equilibrium fit with OLIGOMER on PDB structures
[15] = target: Superoxide dismutase (SodA) (E. coli BL21 (DE3)); test: native MS; online buffer exchange MS; proteins diluted in 50 mM HEPES, 50 mM NaCl pH 7.4 (FabG: 25 mM tricine, 50 mM NaCl pH 8.5), overnight at 4 °C, exchanged online to 200 mM ammonium acetate pH 6.8; range of concentrations 40-0.15 μM before dilution; DeoC: apparent affinity, dimer to monomers, fit of eqn (1)
[16] = target: Superoxide dismutase (SodA) (E. coli BL21 (DE3)); test: SEC; 30 μg protein on Superdex 200 Increase 10/300 GL in PBS pH 7.4; MM from a standard curve of elution volumes
[17] = target: Superoxide dismutase (SodA) (E. coli BL21 (DE3)); test: mass photometry; protein stocks diluted in PBS pH 7.4 to nanomolar concentrations (~100 nM) immediately before measurement; detection threshold ~40 kDa
[18] = target: Upp (E. coli BL21 (DE3)); test: not stated; summary of the solution experiments on the 17 proteins (native MS, MP, SEC, SAXS); which method gave the stated form is not given; details in Table S2, Fig. 5A and Fig. 6
[19] = target: Upp (E. coli BL21 (DE3)); test: mass photometry; protein stocks diluted in PBS pH 7.4 to nanomolar concentrations (~100 nM) immediately before measurement; detection threshold ~40 kDa
[20] = target: the molecule itself; test: native MS; online buffer exchange MS; proteins diluted in 50 mM HEPES, 50 mM NaCl pH 7.4 (FabG: 25 mM tricine, 50 mM NaCl pH 8.5), overnight at 4 °C, exchanged online to 200 mM ammonium acetate pH 6.8; range of concentrations 40-0.15 μM before dilution; DeoC: apparent affinity, dimer to monomers, fit of eqn (1)
[21] = target: the molecule itself; test: SEC; 30 μg protein on Superdex 200 Increase 10/300 GL in PBS pH 7.4; MM from a standard curve of elution volumes

- stoichiometry N [1]: 4
Molecule: Can (enzyme)

- stoichiometry N [9]: 2 and 4
Molecule: IspD (enzyme)

- stoichiometry N [18]: 2 and 4 and 6
- stoichiometry N [19]: 2
Molecule: Upp (enzyme)

Second part, the molecule before the results:

Molecule: FabG (3-oxoacyl-[acyl-carrier-protein] reductase) from E. coli-DE3 (enzyme)
- SAXS MM from I(0) divided by the monomer's mass [2]: 3.5
- stoichiometry N [2]: 6 and 2 and 4
- stoichiometry N [3]: 6
- SAXS MM from I(0) divided by the monomer's mass [4]: 3.7
- stoichiometry N [5]: 4 and 2
- stoichiometry N [6]: 2 and 4 and 6
- percent in an inter-protein disulfide bonded dimer [7]: 50%
- stoichiometry N [8]: 2 and 4

Molecule: NadK (enzyme)
- subunit average from SAXS I(0) at 8 μM [10]: 2.37
- subunit average from SAXS I(0) at 61 μM [10]: 2.67
- percent dimer at ∼1 μM [11]: 56%
- percent dimer at ∼40 μM [11]: 23%
- percent monomer at ∼1 μM [11]: 12%
- percent monomer at ∼40 μM [11]: 2%
- percent tetramer at ∼1 μM [11]: 32%
- percent tetramer at ∼40 μM [11]: 75%
- stoichiometry N [11]: 2 and 4
- stoichiometry N [12]: 2.7

Molecule: SpeB (enzyme)
- stoichiometry N [13]: 6

Molecule: Superoxide dismutase (SodA) (enzyme)
- stoichiometry N [14]: 2
- stoichiometry N [15]: 2
- stoichiometry N [16]: 2
- stoichiometry N [17]: 2

B1: FabG (3-oxoacyl-[acyl-carrier-protein] reductase) from E. coli-K12 (enzyme, E. coli K12)
chain: MNFEGKIALVTGASRGIGRAIAETLAARGAKVIGTATSENGAQAISDYLGANGKGLMLNVTDPASIESVLEKIRAEFGEVDILVNNAGITRDNLLMRMKDEEWNDIIETNLSSVFRLSKAVMRAMMKKRHGRIITIGSVVGTMGNGGQANYAAAKAGLIGFSKSLAREVASRGITVNVVAPGFIETDMTRALSDDQRAGILAQVPAGRLGGAQEIANAVAFLASDEAAYITGETLHVNGGMYMV
notes: FabG, 3-oxoacyl-[acyl-carrier-protein] reductase of E. coli K12, Arg at position 167; probably the same vector, cleaved His-bdSumo tag and added N-terminal alanine as for the other proteins; also called FabG^K12; source: E. coli, purified
- stoichiometry N [20]: 4
- stoichiometry N [21]: 2
